Source: patent US20230002798A1, “PROCESS FOR THE PREPARATION OF A FERMENTABLE SUGAR COMPOSITION AND THE FERMENTATION THEREOF” (WeissBioTech GmbH, priority 2019, published 2023)

B1: Agl1: oligo-1,6-glucosidase of Bifidobacterium breve UCC2003, amino acid sequence SEQ ID NO:1, expressed in Bacillus subtilis (protein)
chain: MMTTFNRAIIPDAIRTNGATPNPWWSNAVVYQIYPRSFQDTNGDGFGDLKGITSRLDYLADLGVDVLWLSPVYKSPQDDNGYDISDYQDIDPLFGTLDDMDELLAEAHKRGLKVVMDLVVNHTSDEHAWFEASKNKDDEHADWYWWRPARPGTTPGEPGSEPNQWGSYFGGSAWEYCPERGEYYLHQFSKKQPDLNWENPAVRRAVYDMMNWWLDRGIDGFRMDVITLISKRTDANGRLPGEYGSELDDLPVGEEGYSNPNPFCADGPRQDEFLKEMRREVFAGREGFLTVGEAPGITPVRNEHITNPANGELDMLFLFDHVDFDCDGVKWKPLPLDLPGFKRIMAGYQTAVENVGWASLFTGNHDQPRVVSRWGDDSSEESRVRSAKALGLMLHMHRGTPYVYQGEELGMTNAHFTSLDQYRDLESLNAYRQRVEEAKVQSPESMLAGIAARGRDNSRTPMQWDGSAYAGFTAPDAATEPWISVNPNHAEINAAGEFDDPDSVYAFYKKLIALRHNSSIVAAGEWQLIDADDAHVYAFTRTLGNERLLVVVNLSGRTVDLPRESTELIAGGVTEPDIILSTYDAPHTVVSLANRELDPWEAAAVQL
modifications: Bifidobacterium breve UCC2003; ACM89182.1 alpha-glucosidase 1
B2: Gth: oligo-1,6-glucosidase of Parageobacillus thermoglucosidasius, amino acid sequence SEQ ID NO:2, expressed in Bacillus subtilis (protein, listed as Parageobacillus thermoglucosidasius)
chain: MERVWWKEAVVYQIYPRSFYDSNGDGIGDIRGIIAKLDYLKELGVDVVWLSPVYKSPNDDNGYDISDYRDIMDEFGTMADWKTMLEEMHKRGIKLVMDLVVNHTSDEHPWFIESRKSKDNPYRDYYIWRPGKNGKEPNNWESVFSGSAWEYDEMTGEYYLHLFSKKQPDLNWENPKVRREVYEMMKFWLDKGVDGFRMDVINMISKVPELPDGEPQSGKKYASGSRYYMNGPRVHEFLQEMNREVLSKYDIMTVGETPGVTPKEGILYTDPSRRELNMVFQFEHMDLDSGPGGKWDIRPWSLADLKKTMTKWQKELEGKGWNSLYLNNHDQPRAVSRFGDDGKYRVESAKMLATFLHMMQGTPYIYQGEEIGMTNVRFPSIEDYRDIETLNMYKERVEEYGEDPQEVMEKIYYKGRDNARTPMQWDDSENAGFTAGTPWIPVNPNYKEINVKAALEDPNSVFHYYKKLIQLRKQHDIIVYGTYDLILEDDPYIYAYTRTLGNEQLIVITNFSEKTPVFRLPDHIIYKTKELLISNYDVDEAEELKEIRLRPWEARVYKIRLP
modifications: WP_042386239.1 alpha-glucosidase

Assays:
[1] = SSF of maltodextrins with added isomaltose, 24 h (Example 1); set-up: species or system Yeast (Deltaferm® AL-18); conditions: SSF 24 h, maltodextrin + 20 g/L isomaltose, enzyme 187.5 kU per ton
Experimental: (§1) Quantification of ethanol yield Ethanol was quantified via HPLC. Samples were taken at the end of the SSF or during SSF at set time points. Samples were centrifuged for 1 min at 17,000 xg and sterile filtered (0.2 μm). The samples were frozen at −80° C. prior to measurements. Ethanol was determined with an Aminex 87C column (Bio-Rad Laboratories, Inc., US) on a Shimadzu HPLC system.
For simultaneous saccharification and fermentation (abbreviated SSF), the oligo-1,6-glucosidases—either Agl1 or Gth—were used as crude Bacillus extract. Glucidex® Maltodextrin 12 (Roquette, FR) was dissolved in SSF-medium (5 g/L yeast extract, 5 g/L peptone, 1 g/L K2HIPO4, 0.5 g/L Mg2SO4 in 50 mM citrate buffer, pH 4.8) at 300 g/L. Panose, isomaltose, isomaltotriose, maltose, maltotriose, or trehalose was added at 20 g/L. As a positive control, 20 g/L glucose was added instead of the respective sugar. The SSF medium containing starch hydrolysate (maltodextrins) and sugars was sterile filtered (0.2 μm). Yeast (Deltaferm® AL-18, WeissBioTech GmbH, Ascheberg, Germany) was grown in YINaC medium (50 g/L dextrose, 5 g/L yeast extract, 5 g/L peptone, 1 g/L K2HPO4, 0.5 g/L Mg2SO4*7H2O, 2 g/L NH4Cl in 50 mM sodium citrate, pH 4.8) for 2 days at 37° C. and harvested by centrifugation for 15 min at 5100 rpm and 8° C. […]

[2] = Industry-relevant SSF of maltodextrins with added panose, 72 h (Example 2); set-up: species or system Yeast (Deltaferm® AL-18); conditions: SSF 72 h, maltodextrin + 20 g/L panose, glucoamylase 400 g/t, enzyme 187.5 kU per ton
Experimental: as §1
For the SSF, the enzyme product was used as crude Bacillus extract. Glucidex® Maltodextrin 12 was dissolved in SSF medium (5 g/L yeast extract, 5 g/L peptone, 1 g/L K2HIPO4, 0.5 g/L Mg2SO4 in 50 mM citrate buffer, pH 4.8) at 300 g/L. Panose was added at 20 g/L. As a positive control, 20 g/L glucose was added. The SSF medium containing starch and sugars was sterile filtered (0.2 μm). Yeast (Deltaferm® AL-18, WeissBioTech GmbH, Ascheberg, Germany) was grown in YINaC medium (50 g/L dextrose, 5 g/L yeast extract, 5 g/L peptone, 1 g/L K2HPO4, 0.5 g/L Mg2SO4*7H2O, 2 g/L NH4Cl in 50 mM sodium citrate, pH 4.8) for 2 days at 37° C. and harvested by centrifugation for 15 min at 5100 rpm and 8° C. Pelleted yeast was added to the SSF at a final concentration of 6 g/L. Glucoamylase (Deltazym® GA L-E5, WeissBioTech GmbH, Ascheberg, Germany) was added at 400 g per ton of dry starch equivalent. The enzyme product Agl1 or Gth was added to a final concentration of 187.5 kU per ton of dry starch equivalent. As a negative control, no oligo-1,6-glucosidase/enzyme product was added. The SSF was performed at 30° C. without stirring or shaking for 72 h.

[3] = Process stability (SSF medium without starch, pH 4.8, 30° C., 72 h); format: physicochemical; conditions: after 72 h at 30° C., pH 4.8, SSF medium without starch
Experimental: Process stability was determined by incubating the enzymes under process conditions (SSF medium without starch, pH 4.8, 30° C.) for 72 h and measuring the remaining activity.

[4] = SSF of commercial liquefied starch, 72 h (Example 3); set-up: species or system Yeast (Deltaferm® AL-18); conditions: SSF 72 h, commercial liquefied starch 300 g/L, glucoamylase 200 g/t, enzyme 187.5 kU per ton
Experimental: as §1
Residual sugars were quantified via HPLC. Samples were taken at the end of the SSF or during SSF at set time points. Samples were centrifuged for 1 min at 17 000 xg and sterile filtered (0.2 μm). The samples were frozen at −80° C. prior to measurements. Residual sugars were determined with a Zorbax NH2 column (Agilent Technologies, Inc., US) on an Agilent 1200 HPLC system.
Liquefied starch was analysed prior to use on a Zorbax NH2 column (Agilent Technologies, Inc., US) for analysis of mono-, di- and trisaccharide type and content, and on an Aminex 42A column (Bio-Rad Laboratories, Inc., US) for analysis of degree of polymerisation (DP) detecting DP1-DP6 content. IPLC was performed on a Shimadzu IPLC system.
For SSF, the enzyme product was used as crude Bacillus extract. Acidified liquefied starch (pH 2.0) from a commercial plant, containing no detectable amounts of panose, isomaltose, isomaltotriose or trehalose, was brought to pH 4.8. SSF medium components (5 g/L yeast extract, 5 g/L peptone, 1 g/L K2HIPO4, 0.5 g/L Mg2SO4 in 50 mM citrate buffer, pH 4.8) were added to liquefied starch (300 g/L). The SSF medium containing starch was sterile filtered (0.2 μm). Yeast (Deltaferm® AL-18, WeissBioTech GmbH, Ascheberg, Germany) was grown in YINaC medium (50 g/L dextrose, 5 g/L yeast extract, 5 g/L peptone, 1 g/L K2HPO4, 0.5 g/L Mg2SO4*7H2O, 2 g/L NH4Cl in 50 mM sodium citrate, pH 4.8) for 2 days at 37° C. and harvested by centrifugation for 15 min at 5100 rpm and 8° C. Pelleted yeast was added to the SSF at a final concentration of 6 g/L. Glucoamylase (Deltazym® GA L-E10, WeissBioTech GmbH, Ascheberg, Germany) was added at 200 g per ton of dry starch equivalent. The enzyme product Agl1 or Gth was added to a final concentration of 187.5 kU per ton of dry starch equivalent. As control, no oligo-1,6-glucosidase/enzyme product was added. The SSF was performed at 30° C. without stirring or shaking for 72 h.

[5] = Storage stability (50% v/v glycerol, 4° C.); format: physicochemical; conditions: at 4° C., extrapolated from 12 months data
Experimental: Storage stability was determined by measuring the activity of the enzymes stored in a glass container in a stabilizing formulation (50% v/v glycerol) at 4° C. over a time period of 12 months. […] “Without a loss in activity” is defined as an extrapolated activity of greater than 95% of the initial activity.

Molecule	ethanol concentration increase by % compared to the negative control [1] [%]	ethanol concentration increase compared to the negative control [1]	ethanol concentration increase by % compared to the negative control [2] [%]	ethanol concentration increase compared to the negative control [2]	process stability (remaining activity) [3] [%]	ethanol concentration increase by % compared to the negative control [4] [%]	ethanol concentration increase compared to the negative control [4]	storage stability without a loss in activity [5]
B1	74	0.98 percentage points (v/v)	8	1.16 percentage points (v/v)	80	2	0.30 percentage points (v/v)	18-24 month
B2			15	1.77 percentage points (v/v)	80	4	0.47 percentage points (v/v)	18-24 month
